Tests used:
[1] = biological target: T1, human ILT4 chimeric reporter receptor (ILT4 extracellular domain fused to PILRbeta transmembrane/intracellular domain) (human), Q8N423
[2] = biological target: soluble rhesus ILT2-ECD (rhesus macaque); experiment: SPR (Biacore), antibody captured on Protein A chip, soluble rhesus ILT2-ECD injected (1.6-200 nM), 25 C
[3] = biological target: T1, human ILT4 chimeric reporter receptor …; remark: listed apart in the source
[4] = biological target: cyno ILT2 chimeric reporter receptor (cyno ILT2 extracellular domain fused to PILRbeta transmembrane/intracellular domain) (cynomolgus monkey)
[5] = biological target: ILT2 and/or ILT4 on human CD14+ monocytes; experiment: flow cytometry, fluorescently labelled antibody on CD14+ monocytes of human PBMC, donor Human 2, geometric MFI
[6] = biological target: human ILT2 chimeric reporter receptor (ILT2 extracellular domain fused to PILRbeta transmembrane/intracellular domain) (human), Q8NHL6
[7] = biological target: ILT2 and/or ILT4 on human CD14+ monocytes; experiment: flow cytometry, fluorescently labelled antibody on CD14+ monocytes of human PBMC, donor Human 1, geometric MFI
[8] = biological target: cynomolgus monkey ILT2 (protein injected in Biacore) (cynomolgus monkey); experiment: SPR (Biacore), antibody captured on Protein A chip, ILT protein injected, 25 C
[9] = biological target: ILT2 and/or ILT4 on human CD14+ monocytes; experiment: flow cytometry, fluorescently-labelled antibody on CD14+ monocytes of human PBMC
[10] = biological target: soluble rhesus ILT2-ECD (rhesus macaque); experiment: SPR (Biacore), antibody captured on Protein A chip, soluble rhesus ILT2-ECD injected, 25 C, low resolution parameters
[11] = biological target: soluble rhesus ILT2-ECD (rhesus macaque); experiment: SPR (Biacore), antibody captured on Protein A chip, soluble rhesus ILT2-ECD injected, 25 C, low resolution parameters; low resolution parameters

Sequence of cynomolgus monkey ILT2 (protein injected in Biacore) (cynomolgus monkey) (chain, as listed by the source limits assumed, form in doubt): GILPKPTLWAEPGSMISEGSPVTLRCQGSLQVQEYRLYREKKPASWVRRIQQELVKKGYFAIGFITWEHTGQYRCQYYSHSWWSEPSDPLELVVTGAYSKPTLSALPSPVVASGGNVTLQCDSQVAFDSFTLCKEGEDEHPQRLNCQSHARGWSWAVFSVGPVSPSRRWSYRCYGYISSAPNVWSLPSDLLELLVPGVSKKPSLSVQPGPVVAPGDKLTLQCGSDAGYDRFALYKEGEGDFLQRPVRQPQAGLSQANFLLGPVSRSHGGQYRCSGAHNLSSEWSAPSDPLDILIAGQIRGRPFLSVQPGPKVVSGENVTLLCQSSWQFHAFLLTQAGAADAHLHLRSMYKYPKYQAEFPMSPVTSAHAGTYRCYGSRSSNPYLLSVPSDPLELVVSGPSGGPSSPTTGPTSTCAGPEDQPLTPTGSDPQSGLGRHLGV
T1 sequence (Q8N423 other isoform, or with tags, fused parts or gaps mutant limits assumed): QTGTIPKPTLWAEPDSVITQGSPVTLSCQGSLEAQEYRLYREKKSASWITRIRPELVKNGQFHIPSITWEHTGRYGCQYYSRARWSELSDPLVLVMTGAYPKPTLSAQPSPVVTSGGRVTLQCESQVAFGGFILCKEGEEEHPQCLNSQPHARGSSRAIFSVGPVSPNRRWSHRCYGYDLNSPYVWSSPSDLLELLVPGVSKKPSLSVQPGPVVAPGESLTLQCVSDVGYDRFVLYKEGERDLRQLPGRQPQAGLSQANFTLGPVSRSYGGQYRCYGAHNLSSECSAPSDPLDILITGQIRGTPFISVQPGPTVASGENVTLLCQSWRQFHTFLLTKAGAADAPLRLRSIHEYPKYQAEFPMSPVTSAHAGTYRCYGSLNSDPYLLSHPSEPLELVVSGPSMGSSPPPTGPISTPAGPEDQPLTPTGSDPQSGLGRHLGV
Sequence of soluble rhesus ILT2-ECD (rhesus macaque) (chain, as listed by the source limits assumed, form in doubt): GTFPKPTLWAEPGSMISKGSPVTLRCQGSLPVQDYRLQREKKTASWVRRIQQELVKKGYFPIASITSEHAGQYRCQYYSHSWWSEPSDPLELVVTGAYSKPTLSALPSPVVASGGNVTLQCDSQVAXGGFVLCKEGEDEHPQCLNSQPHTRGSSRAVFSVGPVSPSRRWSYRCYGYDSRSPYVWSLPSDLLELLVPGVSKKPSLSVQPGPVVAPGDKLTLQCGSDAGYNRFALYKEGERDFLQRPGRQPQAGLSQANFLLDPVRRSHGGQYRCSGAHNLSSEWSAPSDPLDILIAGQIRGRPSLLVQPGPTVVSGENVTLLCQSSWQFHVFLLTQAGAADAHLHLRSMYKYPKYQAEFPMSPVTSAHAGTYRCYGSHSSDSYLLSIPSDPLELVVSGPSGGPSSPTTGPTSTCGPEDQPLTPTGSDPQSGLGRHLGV
Sequence of human ILT2 chimeric reporter receptor (ILT2 extracellular domain fused to PILRbeta transmembrane/intracellular domain) (human), Q8NHL6 (Q8NHL6 24-461 limits assumed, change not shown): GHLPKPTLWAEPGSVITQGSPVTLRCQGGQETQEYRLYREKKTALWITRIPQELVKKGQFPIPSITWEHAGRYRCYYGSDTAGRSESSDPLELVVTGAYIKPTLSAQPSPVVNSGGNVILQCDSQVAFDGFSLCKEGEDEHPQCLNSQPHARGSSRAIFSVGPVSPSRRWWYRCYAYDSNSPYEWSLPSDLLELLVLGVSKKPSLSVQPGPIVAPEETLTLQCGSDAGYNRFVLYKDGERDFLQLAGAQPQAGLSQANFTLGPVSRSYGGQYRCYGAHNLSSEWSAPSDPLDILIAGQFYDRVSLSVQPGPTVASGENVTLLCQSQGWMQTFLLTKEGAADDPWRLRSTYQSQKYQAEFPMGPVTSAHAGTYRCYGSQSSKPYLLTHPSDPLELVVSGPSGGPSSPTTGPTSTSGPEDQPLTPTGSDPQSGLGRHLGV

Binder | Kd [2] [nM] | koff [2] [s⁻¹] | kon [2] [M⁻¹ s⁻¹] | Kd [10] [nM] | koff [10] [s⁻¹] | other results
anti-ILT4 antibody 48A5 (antibody, V domains shown) VH: QIQLVQSGPELKKPGETVKISCKASGYTFTNYGMNWVKQAPGKGLKWMGWINTYIGEPIYADDFKGRFAFSLETSASTAYLQINNLKNEDMATYFCARRSDYDGYAMDYWGQGTSVTVSS VL: DIVMSQSPSSLAVSVGERVTMSCKSSQSLLYSGNQKNYLAWYQQKPGQSPKLLIYWASTRESGVPDRFTGSGSGTDFTLTISSVKAEDLAVYYCQQHDSYPTFGGGSRLEIK | 2.3 | 0.0026 | 1.1e+06 |  |  | IC50 (read off the curve), %GFP+ human ILT4 reporter cells co-cultured with 721.221-HLA-G cells [1]: 0.02 nM; IC50 (read off the curve), %GFP+ human ILT4 reporter cells co-cultured with Raji cells [3]: 0.02 nM
anti-ILT2 antibody 27F9 (antibody, V domains shown) VH: QVQLKESGPGLVAPSQSLSITCTVSGFSLTNYGVSWVRQPPGKGLEWLGIIWGDGSTNYHSALISRLSISKDNSKSQVFLKLNSLQADDTATYYCAKPNWDTYAMDFWGQGTSVTVSS VL: DIQMTQTTSSLSASLGDRVTISCRASQDISNFLNWYQQKPDGTVKLLIYCTSKLHSGVPSRFSGSGSETDYSLTISNLEQEDIATYFCQQGNTLPPTFGGGTKLEII |  |  |  |  |  | IC50 (read off the curve), %GFP+ human ILT2 reporter cells co-cultured with Raji cells [6]: 0.04 nM
humanized anti-ILT2/ILT4 antibody Hz73D1.v1 (antibody, human IgG1, kappa, N297G, V domains shown) VH: QVQLVQSGAEVKKPGASVKVSCKASGYTFTDYYINWVRQAPGQGLEWMGNVNPNDGGTTYNQKFKGRVTMTTDTSTSTAYMELRSLRSDDTAVYYCARREIYFYGTIYYYAMDYWGQGTLVTVSS VL: DIQLTQSPSFLSASVGDRVTITCRASESVDYYGNSFMYWYQQKPGKAPKLLIYFASNLESGVPSRFSGSGSGTEFTLTISSLQPEDFATYYCQQNNEDPWTFGGGTKVEIKR |  |  |  |  |  | Kd [8]: 19.1 nM; koff [8]: 0.06 s⁻¹; kon [8]: 3.4e+06 M⁻¹ s⁻¹; EC50 [9]: 8.8 nM
anti-ILT2/ILT4 antibody 47H6 (antibody, V domains shown) VH: EVQLQQSGPELVKPGASVKISCKASGYTFTDYYMNWVKQSHGKSLEWIGDFNPNNGGTTYNQKFEGKATLTVDKSSNTAYMDLRSLTSEDSAVYYCARGRFYYGSLYSFDYWGQGTTLTVSS VL: DIQMTQSPASLSASVGETVTITCRASGNIHNYLAWYQQKQGKSPHLLVYNAKTLADGVPSRFSGSGSGTQYSLKINNLQPEDFGSYYCQHFWTSITFGAGTKLDLK |  |  |  | < 0.1 | 1e-05 | kon [10]: 47000 M⁻¹ s⁻¹
anti-ILT2/ILT4 antibody 64A12 (antibody, V domains shown) VH: EVQLVESGGGLVQPKGSLKLSCAASGFTFNTYAMHWVRQAPGKGLEWVARIRSKSSNYATYYADSVKDRFTISRDDSQSMLYLQMNNLKTEDTAMYYCVRDGIYYYDTMYYYAMDYWGQGTSVTVSS VL: NIVLTQSPASLAVSLGQRATISCRASESVDYYGNSFIYWYQQKPGQPPKLLIYFASNLESGVPARFSGSGSRTDFTLTIDPVEAADAASYYCQQNNEDPWTFGGGTKLEIK |  |  |  | < 0.1 | 1e-05 | kon [11]: 20000 M⁻¹ s⁻¹
anti-ILT2/ILT4 antibody 73C4 (antibody, V domains shown) VH: AVQLQQSGPELVKPGASVKISCKASGYTFTDYYMNWVKQSHGKSLEWIGNVNPNNGGTSYNQKFKGKATLTVDKSSSTAYMELRSLTSEDSAVYYCARREIYFYGTIYYYAMDYWGQGTSVTVSS VL: DIVLTQSPASLAVSLGQRATISCRASESVDYYGNSFMYWYQQKPGRPPNLLIYFASNLESGVPARFSGSGSRTDFTLTIDPVEADDAATYYCQQNNEDPWTFGGGTKLEIK |  |  |  | < 0.1 | 1e-05 | kon [10]: 31000 M⁻¹ s⁻¹

The next lines start with results.

Kd [2] [nM] | koff [2] [s⁻¹] | kon [2] [M⁻¹ s⁻¹] | Kd [10] [nM] | koff [10] [s⁻¹] | Binder | other results
1.2 | 6e-05 | 50000 |  |  | anti-ILT2/ILT4 antibody 73D1 (antibody, V domains shown) VH: AVQLQQSGPELVKPGASVKISCKASGYTFTDYYINWVKQSHGKSLQWIGNVNPNDGGTTYNQKFKGKATLTVDKSSSTAYMELRSLTSEDSAVYYCARREIYFYGTIYYYAMDYWGQGTSVTVSS VL: DIVLTQSPASLAVSLGQRATISCRASESVDYYGNSFMYWYQQKPGRPPNLLIYFASNLESGVPARFSGSGSRTDFTLTIDPVEADDAATYYCQQNNEDPWTFGGGTKLEIK | IC50 (read off the curve), %GFP+ cyno ILT2 reporter cells co-cultured with Raji cells [4]: 0.04 nM; EC50 (read off the curve) [5]: 5 nM; IC50 (read off the curve), %GFP+ human ILT2 reporter cells co-cultured with Raji cells [6]: 0.2 nM; IC50 (read off the curve), %GFP+ human ILT4 reporter cells co-cultured with Raji cells [3]: 0.07 nM; EC50 (read off the curve) [7]: 4 nM
2.3 | 0.0014 | 590000 |  |  | anti-ILT4 antibody 47C8 (antibody, V domains shown) VH: EVQLQQSGPDLVKPGASVKISCKASGYSFTGYYMHWVKQSHGKSLEWIGRVYPNNGDTSYNQKFKVKAILTVDKSSSTAYMELRSLTSEDSAVYYCARGATVVESLFAYWGQGTLVTVSA VL: DIVLTQSPASLAVSLGQRATISCRASESVDNYGNNFLHWYQQKPGQPPKLLIYRTSNLESGIPARFSGSGSRTDFTLTINPVEADDVATYYCQQSNEDPYTFGGGTKLEIK | 
0.2 | 2.1e-05 | 100000 |  |  | anti-ILT2/ILT4 antibody 51A1 (antibody, V domains shown) VH: EVQLVESGGGLVQPKGSLKLSCAASGFTFNTYAMHWVRQAPGKGLEWVARIRSKSSNYATYYADSVKDRFTISRDDSQSMLYLQMNNLKTEDTAMYYCVRDGIYYYGTMYYYAMDYWGQGTSVTVSS VL: NIVLTQSPASLAVSLGQRATISCRASESVDYYGNSFMYWYQQKPGQPPKLLIYFASNLESGVPARFSGSGSRTDFTLTIDPVEAADAASYYCQQNNEDPWTFGGGTKLEIK | 
